We go through six molecules from US20030223996A1 (published 2003).

Test [1] concerns the target T1, mouse membrane-bound BLyS on P388 plasma membranes (mouse, UniProt Q9WU72 1-309).
T1 construct: whole, on cells; Plasma membrane preparations, not intact cells
The experiment in a line: competition phage ELISA on P388 membranes. As for the experimental part: The ability of the 5 scFvs listed in Table 8 to also recognize murine membrane-bound BLyS was determined using a competition ELISA. This assay assesses the ability of test phage scFvs to bind to the membrane-bound form of BLyS on the murine cell line, P388, plasma membranes in the presence of different forms of competing human BLyS. Competing BLyS was either presented as the His-tagged form of BLyS, or soluble BLyS. ScFvs that recognize mouse membrane-bound BLyS would give an ELISA signal on the P388 plasma membranes that is competed out by pre-incubation with HIS-tagged BLyS but not by pre-incubation with soluble BLyS.
P388 plasma membranes (50 μl per well) were coated at 10 μg/ml in PBS onto Falcon 96-well plates overnight at 4° C. The method is otherwise essentially as described Example 16.
On the technique in general: An ELISA detects its analyte on a solid surface through an enzyme-linked reagent.

The target in test [2] is T2, Tumour Necrosis Factor-alpha (human, UniProt P01375 77-233).
T2 construct: also called TNFα; TNF-α
T2 sequence (P01375 77-233 limits assumed): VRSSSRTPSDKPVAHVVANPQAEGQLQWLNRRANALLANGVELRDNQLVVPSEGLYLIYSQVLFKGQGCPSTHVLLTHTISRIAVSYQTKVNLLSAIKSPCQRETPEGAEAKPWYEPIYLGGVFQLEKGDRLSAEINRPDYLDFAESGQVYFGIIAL
Nature of the test: phage ELISA. The method, then: (§1) To determine the specificity of the 48 scFvs, a phage ELISA was performed against human and mouse BLyS, and a panel of related and unrelated human antigens: Fas ligand, TRAIL, TNFα, TNFβ, and PBS. The: Fas ligand, TRAIL, TNFα, and TNFβ antigens were obtained from R&D Systems, Minneapolis, Minn. Individual E. coli colonies containing phagemid were inoculated into 5 ml 2YTAG and incubated at 37° C. for 4 hours, shaking. M13KO7 helper phage (Pharmacia) was added to each tube to a MOI of 10 and incubated […] 1 hour, the first 30 minutes static and the final 30 minutes with gentle shaking. Cells were pelleted by centrifugation at 3,500 rpm for 10 minutes and the supernatant discarded. Cell pellets were resuspended in 5 ml 2TYAK and incubated at 30° C. overnight with shaking. The next day, the cells were pelleted by centrifugation at 3,500 rpm for 10 minutes. The phage-containing supernatant (5 ml) was carefully transferred to a fresh tube, 1 ml of 6MPBS was added, and the tube was incubated at room temperature for 1 hour to pre-block the phage prior to ELISA.
(§2) All antigens were coated at 1 μg/ml. ELISAs were performed essentially as described in Example 2. The only exception to this being the detection of phage antibody binding to mouse BLyS where the step involving incubation with the HRP-labelled anti-mouse polymer was omitted. Binding to mouse BLyS was detected with TMB as in Example 2.

Test [3] has as its target T3, Tumour Necrosis Factor-beta (human, UniProt P01374 35-205).
T3 construct: also called TNFβ; TNF-β
T3 sequence (looked up): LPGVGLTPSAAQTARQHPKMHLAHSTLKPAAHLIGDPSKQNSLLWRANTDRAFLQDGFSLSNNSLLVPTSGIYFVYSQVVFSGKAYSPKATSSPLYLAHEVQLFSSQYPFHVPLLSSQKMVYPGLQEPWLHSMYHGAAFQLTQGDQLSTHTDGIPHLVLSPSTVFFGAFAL
Nature of the test: phage ELISA. The method, then:
as §1, §2

T1 sequence (Q9WU72 whole entry): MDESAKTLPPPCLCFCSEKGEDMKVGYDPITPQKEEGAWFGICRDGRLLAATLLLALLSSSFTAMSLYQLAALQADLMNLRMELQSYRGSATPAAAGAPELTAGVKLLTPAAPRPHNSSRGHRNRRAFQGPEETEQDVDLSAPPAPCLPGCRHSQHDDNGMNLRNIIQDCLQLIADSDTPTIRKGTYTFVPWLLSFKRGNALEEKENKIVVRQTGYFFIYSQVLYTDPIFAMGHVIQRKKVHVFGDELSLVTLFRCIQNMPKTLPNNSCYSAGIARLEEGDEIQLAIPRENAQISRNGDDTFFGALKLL

B1: I079E02 (scFv)
scFv: QVQLVQSGAEVKKPGSSVKVSCKASGGTFSSYAISWVRQAPGQGLEWMGGIIPIFGTANYAQKFQGRVTITADKSTSTAYMELSSLRSDDTAVYYCARDSGSYYYDAFDIWGKGTMVTVSSGGGGSGGGGSGGGGSDIVMTQSPSTLSASVGDRVTITCRASQGISSWLAWYQQKPGKAPKLLIYAASSLQSGVPSRFSGSGSGTDFTLTISSLQPEDFATYYCQQANSFPLTFGGGTKVEIKR
As for B1, the binding result in test [1] is “binds”.

B2: I082H08 (scFv)
scFv: EVQLVESGGGLVQPGGSLRLSCAASGFTFSDYGMHWVRQRPGKGLEWIAFIGSDGSNKYYGDTVKGRFTISRDNAKNSLYLQMNSLRAEGTAVYYCARDWDMDVWGQGTMVTVSSGGGGSGGGGSGGGGSSHVILTQPRSVSGSPGQSVTISCTGTSSDVGGYHYVSWYQQHPGKAPRLMIYEVTKRPSGVSNRFSGSKSGNTASLTISGVQAEDEADYYCSSYTSASTVIFGGGTKLTVLG
As for B2, the binding result in test [1] was “binds”.

B3: I001C09 (scFv)
scFv: GVQLVQSGPEVKKPGASVKVSCTASGYTFTSYGVSWVRQAPGQGLEWIGWISAHNGQTKYAEKFQGRVTMTRNTSISTAYMELSSLRSEDTAVYYCARDGSYDILTGYYIDNYMDVWGKGTMVTVSSGGGGSGGGGSGGGGSSELTQDPAVSVALGQTVRITCQGDSLRSYYTNWFQQKPGQAPLLVVYAKNKRPSGIPDRFSGSSSGNTASLTITGAQAEDEADYYCHSRDSSGNHVLFGGGTKLTVLG
As to B3, in test [2], the binding result is “no binding”.

B4: I050A07 (scFv)
scFv: QVQLVQSGAEVKKPGASMKVSCKASAGRASAYGFAMHPIHWVRQAPGQGLEWMGWINGGTGNTKYSEKFLGRVTMTSDTSATTAYMELSSLRSEDTAVYYCARQDNDPLTGYKLGFDYWGKGTLVTVSSGGGGSGGGGSGGGGSAQSVVTQPPSVSGAPGQRVTISCTGSSTNVGAGYGVHWYQQFPETAPKLLIYGGSNRPSGVPDRFSGSQSGTSASLAITGLQAEDEADYYCQSYDTTLSGYVFGTGTKVTVLG
For the molecule B4, in test [2], the binding result is given as “no binding”.

B5: I099D03 (scFv)
scFv: QVQLVQSGAEVKKPGASVRVSCKSSGYTFTNYGISWVRQAPGQGLEWMGWISNNNGKTYYAQKVQGRVTMTTDTSTSTDYMELRGLRSDDTAIYYCARDNGGGTIGFDYWGRGTLVTVSSGGGGSGGGGSGGGGSAQAVLTQPSSVSGAPGQRVTMSCTGSSSNIGAGYDVHWYQQLPGTAPKLLIYDNTNRPSGVPDRFSGSRSGTSASLAITGLQAEDEADYFCQSYDITLSAVFGTGTKVTVLG
For the molecule B5, the binding result in test [1] is on record as “binds”.

B6: I016F04 (scFv)
scFv: QVQLQQSGSELKKPGASVKVSCKVSGYSLTKMSMHWVRQSPGEGLEWVGGIDPETRQPVYAQKFQGRVTITKDTSASAAYMELSSLGSEDTALYYCARATYDPLTGYSFDGFDIWGQGTLVTVSSGGGGSGGGGSGGGGSQSVLTQPASVSGSPGQSITISCTGTSSDVGGYNYVSWYQQHPGKAPKLMIYEGSKRPSGVSNRFSGSKSGNTASLTISGLQAEDEADYYCSSYTTRSTRVFGGGTKLTVLG
With B6, the binding result in test [3] is recorded as “no binding”.
